From patent publication US7001748B2, “Methods of making polyketides using hybrid polyketide synthases” (The Board of Trustees of the Leland Stanford Junior …, priority 1999, dated 2006)

How the values were obtained:
[1] = test system: (5)M2+TE, (5)M5+TE, and (5)M6+TE; test: Diketide incorporation, statements made for all three modules together; format: biochemical; conditions: control studies, data not shown
Protocol: Qualitative Substrate Incorporation Assays. The reaction buffer for the diketide incorporation assays contained 400 mM NaH2PO4 (pH 7.2), 2.5 mM DTT, 1 mM ETDA, 20% glyercol (reaction buffer C). 1 μM module, 20 μM acyl-ACP, 500 μMDL-[2-^14C]-methylmalonyl CoA (ARC), and 4 mM NADPH (Sigma) were incubated in 20 μL of the reaction buffer at 30° C. for 1.5 h. The reactions were either spotted directly onto a TLC plate (Whatman 250 μM silica gel, UV254), or first extracted with EtOAc followed by spotting of the organic extracts on a TLC plate. The TLC plates were resolved using 60% EtOAc in hexanes, and the radioactive products were visualized on a Packard InstantImager.
Determination of kcat Values. […] To quench the reactions, 20 μL reaction aliquots were mixed with 80 μL of 12.5% SDS. kcat values for the acyl-ACP substrates were determined by measuring steady-state saturating rates at multiple substrate concentrations (varying from 40 to 90 μM 4). […]
Qualitative Assays of Diketide Incorporation by Acyl-ACPs. […] 2000, 122, 4847-4852 (It should be noted that elongation of 4c and 4d by modules 5+TE and 6+TE yielded minor quantities of unreduced triketide lactones, indicating less efficient β-ketoreductase activity on these two anti-diketide substrates than on the two syn-diketide substrates.). […]

[2] = target: T1, module 6+TE (Saccharopolyspora erythraea, UniProt Q03133, DEL53-1503); conditions: diffusive loading, shown earlier; cited from earlier work
T1 construct: a single module of the DEBS PKS fused to the thioesterase (TE) termination region of module 6; made in house; host or cells: E. coli BL21(DE3) co-expressing B. subtilis sfp

[3] = test system: (5)M2+TE, (5)M5+TE, and (5)M6+TE; conditions: Wu et al. 2000; cited from earlier work
[4] = target: T2, module 2+TE (Saccharopolyspora erythraea, UniProt Q03131+Q03133); conditions: diffusive loading, shown earlier; cited from earlier work
T2 construct: a single module of the DEBS PKS fused to the thioesterase (TE) termination region of module 6; made in house; host or cells: E. coli BL21(DE3) co-expressing B. subtilis sfp

[5] = target: T3, module 5+TE (Saccharopolyspora erythraea, UniProt Q03133); conditions: diffusive loading, shown earlier; cited from earlier work
T3 construct: a single module of the DEBS PKS fused to the thioesterase (TE) termination region of module 6; thioesterase (TE) domain of DEBS (end of the same DEBS3 polypeptide); made in house; host or cells: E. coli BL21(DE3) co-expressing B. subtilis sfp

[6] = target: T4, (5)M3+TE (Saccharopolyspora erythraea, UniProt Q03132+Q03133); conditions: previously shown; cited from earlier work
T4 construct: (5)M3+TE: module 3 with N-terminal linker from module 5; N-terminal interpolypeptide linker of DEBS module 5 (start of DEBS3, Q03133); His6 (C); made in house; host or cells: E. coli BL21(DE3) co-expressing B. subtilis sfp

[7] = target: T5, (3)M3+TE (Saccharopolyspora erythraea, UniProt Q03132+Q03133); conditions: previously shown; cited from earlier work
T5 construct: encodes module 3 of DEBS (M3) with its own N-terminal linker and with the thioesterase fused to the C-terminus; natural N-terminal interpolypeptide linker of module 3 (start of DEBS2, ahead of the Module 3 feature); His6 (C); made in house; host or cells: E. coli BL21(DE3) co-expressing B. subtilis sfp

[8] = target: T6, M2(4) and (5)M3+TE (Saccharopolyspora erythraea, UniProt Q03131+Q03132); test: Inhibition of tetraketide production by synthetic peptide, M4-M5 linker pair; format: biochemical; conditions: peptide concentrations up to 100 μM
T6 construct: Plasmid pST179 encodes a derivative of M2 containing the C-terminal linker of DEBS module 4 (M4); made in house; host or cells: E. coli BL21(DE3) co-expressing B. subtilis sfp
Protocol: (§1) Inhibition of Tetraketide Production. The ability of the synthetic peptide to inhibit the transfer reaction, and thus the production of tetraketide, was tested under the same reaction conditions described for the two module coincubations. The concentrations of M2 and M3+TE were both 1.0 μM, and the concentrations of M2(4) and (5)M3+TE were 0.5 and 1.0 μM, respectively. The only difference was the addition of the peptide at concentrations ranging from 1 to 100 μM to the assay containing M2 and M3+TE [or alternatively M2(4) and (5)M3+TE]. For greater accuracy, each inhibition assay was performed side by side with a control lacking inhibitor. The effect of the inhibitor was thus determined by dividing the inhibited rate by the control rate.

[9] = target: T7, individually assayed modules, including M3+TE (Saccharopolyspora erythraea, UniProt Q03132+Q03133); test: Effect of synthetic peptide on individually assayed modules; format: biochemical
T7 construct: encodes module 3 of DEBS (M3) with its own N-terminal linker and with the thioesterase fused to the C-terminus; natural N-terminal interpolypeptide linker of module 3 (start of DEBS2, ahead of the Module 3 feature); His6 (C); made in house; host or cells: E. coli BL21(DE3) co-expressing B. subtilis sfp
Protocol: In Vitro Polyketide Production. Assays of individual modules contained 1.0 μM protein, 1-10 mM N-acetylcysteamine thioester of the “natural” (2S,3R)-2-methyl-3-hydroxypentanoic acid diketide (NDK) (1), 4 mM NADPH, 440 mM sodium phosphate, 1 mM EDTA, 2.5 mM dithiothreitol (DTT), and 20% w/v glycerol, pH 7.2, in 80 μL. Reactions with M2 or M2(4) included 0.3 mM ^14C-methylmalonyl-CoA (specific activity adjusted to 10.4 mCi/mmol), and those with M3+TE or (5)M3+TE included 0.5 mM ^14C-methylmalonyl-CoA (specific activity reduced to 1.1 mCi/mmol). [M2(4) refers to a derivative of M2 in which the C-terminal linker has been replaced with its counterpart from module 4, whereas (5)M3 refers to a derivative of M3 in which the N-terminal linker has been replaced with its counterpart from module 5 (see FIG. 4).] Both concentrations of methylmalonyl-CoA were saturating, but different concentrations were needed due to the disparate rates of turnover between the modules with and without the thioesterase. The reaction mixtures were preincubated to 30° C. and started with the addition of the methylmalonyl-CoA. […] Product formation was quantified by comparison with standards of the labeled methylmalonyl-CoA. […]

[10] = target: T8, M2 and M3+TE (Saccharopolyspora erythraea); test: Inhibition of tetraketide production by synthetic peptide, M2-M3 linker pair; format: biochemical; conditions: peptide 1 to 100 μM, 1.0 μM M2 and M3+TE
T8 construct: Plasmid pBP19 contains module 2 of DEBS (M2) and is a derivative of pRSG64; made in house; host or cells: E. coli BL21(DE3) co-expressing B. subtilis sfp
Protocol: as §1

[11] = CD spectroscopy of the M3 N-terminal peptide; format: physicochemical
Protocol: CD Spectroscopy. The CD spectrum of the M3 N-terminal peptide was recorded in a 1-mm path-length cell at a sample concentration of 100 μM in phosphate-buffered saline (PBS; 0.15 M KCl, 25 mM phosphate, pH 6.9). Measurements were made using an Aviv 62DS spectropolarimeter. Concentration was determined by tyrosine absorbance at 275 nm in 8 M guanidine hydrochloride.

[12] = listed as N-terminal linker of module 3
[13] = listed as synthetic peptide mimic of the N-terminal linker of M3

CCC(O)C(C)C(=O)SCCNC(=O)CCNC(=O)C(O)C(C)(C)COP(=O)(O)OP(=O)(O)OCC1OC(n2cnc3c(N)ncnc32)C(O)C1OP(=O)(O)O (stereo not drawn) [5a]
CoA thioester compared with NAC thioester 2a as substrate [1]: approximately equivalent substrates

CCC(O)C(C)C(=O)SCCNC(C)=O (stereo not drawn) [2a]
kcat, NAC thioester substrate [2]: 0.283 s⁻¹ | incorporation of NAC thioester (qualitative) [3]: substrates for the three modules | kcat, NAC thioester substrate [4]: 0.0767 s⁻¹ | kcat (elongation rate constant), NAC thioester substrate [5]: 0.00417 s⁻¹ | incorporation of NAC thioester (qualitative) [6]: readily incorporated and elongated | incorporation of NAC thioester (qualitative) [7]: readily incorporated and elongated

H2N-MTDSEKVAEYLRRATLDLRAARQRIRELESD-amide (H-MTDSEKVAEYLRRATLDLRAARQRIRELESD-NH2) [M3 N-term]
inhibition of tetraketide lactone 2 formation [8, 12]: No inhibitory effect | inhibition of tetraketide lactone 2 formation [8, 13]: no such effect | inhibitory effect upon individually assayed modules [9]: no inhibitory effect | inhibition of tetraketide lactone 2 formation [10, 12]: could inhibit the formation of 2 | inhibition of tetraketide lactone 2 formation ([10]; listed as peptide corresponding to the N-terminal linker of module 3): shown to inhibit the formation of tetraketide lactone 2 | inhibition of tetraketide lactone 2 formation [10, 13]: lowered the overall rate of tetraketide production in a dose-dependent fashion | helical content ([11]; 100 μM in PBS pH 6.9, listed as N-terminal linker peptide of M3): approximately 50% | helical content ([11]; 100 μM in PBS pH 6.9, listed as peptide mimic): ca. 50%
